Two proteins from patent US10465177B2, “Maltooligosyl trehalose trehalohydrolase (MTHase) mutant and application thereof” (Jiangnan University, priority 2018, dated 2019) can be followed below.

Substrate in series [1]: OC[C@H]1O[C@H](O[C@H]2[C@H](O)[C@@H](O)[C@@H](O[C@H]3[C@H](O)[C@@H](O)[C@@H](O[C@H]4[C@H](O)[C@@H](O)[C@@H](O[C@H]5[C@H](O)[C@@H](O)[C@@H](O[C@H]6[C@H](O)[C@@H](O)C(O)O[C@@H]6CO)O[C@@H]5CO)O[C@@H]4CO)O[C@@H]3CO)O[C@@H]2CO)[C@H](O)[C@@H](O)[C@@H]1O
Nature of the series: purified protein, by the assay type. The note with it: other: wild type enzyme, maltohexose substrate, 60° C.

Substrate in series [2]: OC[C@H]1O[C@H](O[C@H]2[C@H](O)[C@@H](O)[C@@H](O[C@H]3[C@H](O)[C@@H](O)[C@@H](O[C@H]4[C@H](O)[C@@H](O)[C@@H](O[C@H]5[C@H](O)[C@@H](O)[C@@H](O[C@H]6[C@H](O)[C@@H](O)C(O)O[C@@H]6CO)O[C@@H]5CO)O[C@@H]4CO)O[C@@H]3CO)O[C@@H]2CO)[C@H](O)[C@@H](O)[C@@H]1O
Nature of the series: purified protein, by the assay type. Conditions: other: mutant M140L/L202P/L218D/Y323G/F338S/I404T, maltohexose substrate, 60° C. The format is biochemical, Sulfolobus acidocaldarius.

B1: maltooligosyl trehalose trehalohydrolase (MTHase) derived from Sulfolobus acidocaldarius, wild type (WT), SEQ ID NO.2 (Sulfolobus acidocaldarius) (protein)
chain: MFSFGGNIEKNKGIFKLWAPYVNSVKLKLSKKLIPMEKNDEGFFEVEIDDIEENLTYSYIIEDKREIPDPASRYQPLGVHDKSQLIRTDYQILDLGKVKIEDLIIYELHVGTFSQEGNFKGVIEKLDYLKDLGITGIELMPVAQFPGNRDWGYDGVFLYAVQNTYGGPWELAKLVNEAHKRGIAVILDVVYNHIGPEGNYLLGLGPYFSDRYKTPWGLTFNFDDRGCDQVRKFILENVEYWFKTFKIDGLRLDAVHAIFDNSPKHILQEIAEKAHQLGKFVIAESDLNDPKIVKDDCGYKIDAQWVDDFHHAVHAFITKEKDYYYQDFGRIEDIEKTFKDVFVYDGKYSRYRGRTHGAPVGDLPPRKFVVFIQNHDQVGNRGNGERLSILTDKTTYLMAATLYILSPYIPLIFMGEEYYETNPFFFFSDFSDPVLIKGVREGRLKENNQMIDPQSEEAFLKSKLSWKIDEEVLDYYKQLINIRKRYNNCKRVKEVRREGNCITLIMEKIGIIASFDDIVINSKITGNLLIGIGFPKKLKKDELIKVNRGVGVYQLE
Consider B1, for which the Km in series [1] stood at 3.89 ± 0.34 mM.

B2: maltooligosyl trehalose trehalohydrolase (MTHase) derived from Sulfolobus acidocaldarius (parent SEQ ID NO.2), mutant M140L/L202P/L218D/Y323G/F338S/I404T … (protein)
chain: MFSFGGNIEKNKGIFKLWAPYVNSVKLKLSKKLIPMEKNDEGFFEVEIDDIEENLTYSYIIEDKREIPDPASRYQPLGVHDKSQLIRTDYQILDLGKVKIEDLIIYELHVGTFSQEGNFKGVIEKLDYLKDLGITGIELLPVAQFPGNRDWGYDGVFLYAVQNTYGGPWELAKLVNEAHKRGIAVILDVVYNHIGPEGNYLPGLGPYFSDRYKTPWGDTFNFDDRGCDQVRKFILENVEYWFKTFKIDGLRLDAVHAIFDNSPKHILQEIAEKAHQLGKFVIAESDLNDPKIVKDDCGYKIDAQWVDDFHHAVHAFITKEKDGYYQDFGRIEDIEKTSKDVFVYDGKYSRYRGRTHGAPVGDLPPRKFVVFIQNHDQVGNRGNGERLSILTDKTTYLMAATLYTLSPYIPLIFMGEEYYETNPFFFFSDFSDPVLIKGVREGRLKENNQMIDPQSEEAFLKSKLSWKIDEEVLDYYKQLINIRKRYNNCKRVKEVRREGNCITLIMEKIGIIASFDDIVINSKITGNLLIGIGFPKKLKKDELIKVNRGVGVYQLE
notes: sextuple site-directed mutant of the 556-aa parent
With B2, the Km in series [2] turned out to be 3.4 ± 0.94 mM.
